Assay results published in PMC8989918, “SH3-domain mutations selectively disrupt Csk homodimerization or PTPN22 binding” (Scientific Reports, 2022).

Molecular target: the molecule itself
Assay: SEC; 1 ml (20 mg, 400 µM) purified Csk loaded onto a HiLoad 16/60 Superdex 200 column; apparent molecular weight from partition coefficients of standard proteins

B1: purified recombinant Csk WT (natural protein, mouse, UniProt P41241 1-450, looked up)
chain: MSAIQAAWPSGTECIAKYNFHGTAEQDLPFCKGDVLTIVAVTKDPNWYKAKNKVGREGIIPANYVQKREGVKAGTKLSLMPWFHGKITREQAERLLYPPETGLFLVRESTNYPGDYTLCVSCEGKVEHYRIMYHASKLSIDEEVYFENLMQLVEHYTTDADGLCTRLIKPKVMEGTVAAQDEFYRSGWALNMKELKLLQTIGKGEFGDVMLGDYRGNKVAVKCIKNDATAQAFLAEASVMTQLRHSNLVQLLGVIVEEKGGLYIVTEYMAKGSLVDYLRSRGRSVLGGDCLLKFSLDVCEAMEYLEGNNFVHRDLAARNVLVSEDNVAKVSDFGLTKEASSTQDTGKLPVKWTAPEALREKKFSTKSDVWSFGILLWEIYSFGRVPYPRIPLKDVVPRVEKGYKMDAPDGCPPAVYEVMKNCWHLDAATRPTFLQLREQLEHIKTHELHL
notes: Csk, tyrosine-protein kinase, mouse, full length (50.6 kDa), from pGEX-6P-3; also called WT Csk; full-length Csk; source: E. coli BL21(DE3), purified (GST Gravitrap, PreScission cleavage, HiTrap Q, Superdex 200); not shown: GST, N-terminal, cleaved
B1: binds.
